Positions of bridges follow the written chain, without caps; N, C: chain ends. No end group written: not given here.
T1: mouse kappa opioid receptor (mORK1, msl-1) (Mus musculus)
T1 chain: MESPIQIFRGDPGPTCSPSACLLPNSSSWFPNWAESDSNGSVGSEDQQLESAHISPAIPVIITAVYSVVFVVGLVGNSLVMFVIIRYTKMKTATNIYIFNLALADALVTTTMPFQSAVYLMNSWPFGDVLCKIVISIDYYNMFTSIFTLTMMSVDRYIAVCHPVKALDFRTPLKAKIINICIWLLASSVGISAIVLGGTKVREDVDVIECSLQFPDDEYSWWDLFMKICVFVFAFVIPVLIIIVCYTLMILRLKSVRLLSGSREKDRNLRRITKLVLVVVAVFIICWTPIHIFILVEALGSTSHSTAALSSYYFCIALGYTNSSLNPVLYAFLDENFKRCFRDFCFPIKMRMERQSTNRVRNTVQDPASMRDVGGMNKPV

T2: mouse delta opioid receptor (mORD1, msl-2) (Mus musculus)
T2 chain: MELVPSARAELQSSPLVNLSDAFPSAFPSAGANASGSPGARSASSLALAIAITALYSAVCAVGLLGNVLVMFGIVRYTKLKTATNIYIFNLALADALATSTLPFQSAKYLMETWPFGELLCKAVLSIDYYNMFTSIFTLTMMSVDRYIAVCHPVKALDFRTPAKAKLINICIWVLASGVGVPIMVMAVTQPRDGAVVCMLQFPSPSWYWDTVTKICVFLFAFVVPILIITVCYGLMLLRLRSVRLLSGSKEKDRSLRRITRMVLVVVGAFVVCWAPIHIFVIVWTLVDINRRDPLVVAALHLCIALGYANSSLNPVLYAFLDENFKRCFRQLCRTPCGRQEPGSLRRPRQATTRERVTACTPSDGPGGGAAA

T3: delta opioid receptor D128N mutant (Mus musculus)
T3 chain: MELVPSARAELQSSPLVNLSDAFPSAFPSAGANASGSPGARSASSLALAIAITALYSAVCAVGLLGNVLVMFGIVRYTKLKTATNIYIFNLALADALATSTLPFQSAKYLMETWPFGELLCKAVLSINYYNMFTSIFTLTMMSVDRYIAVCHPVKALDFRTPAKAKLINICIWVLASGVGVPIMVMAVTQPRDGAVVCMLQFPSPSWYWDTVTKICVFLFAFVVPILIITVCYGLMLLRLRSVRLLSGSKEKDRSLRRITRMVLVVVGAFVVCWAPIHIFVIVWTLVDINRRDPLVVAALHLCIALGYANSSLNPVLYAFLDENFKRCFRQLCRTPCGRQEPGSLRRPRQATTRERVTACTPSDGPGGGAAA

T4: MOP2 (Mus musculus)
T4 chain: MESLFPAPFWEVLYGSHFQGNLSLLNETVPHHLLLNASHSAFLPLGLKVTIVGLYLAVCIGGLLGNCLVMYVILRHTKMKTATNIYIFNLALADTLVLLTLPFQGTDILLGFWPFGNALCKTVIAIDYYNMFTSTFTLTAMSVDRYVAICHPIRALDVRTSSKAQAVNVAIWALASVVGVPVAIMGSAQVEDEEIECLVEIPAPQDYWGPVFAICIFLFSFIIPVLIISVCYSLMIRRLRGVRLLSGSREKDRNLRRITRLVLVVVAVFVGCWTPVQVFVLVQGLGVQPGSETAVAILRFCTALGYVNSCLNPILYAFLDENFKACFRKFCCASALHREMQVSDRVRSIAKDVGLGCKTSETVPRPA

T5: rat mu opioid receptor (Rattus norvegicus, UniProt P33535)
T5 chain: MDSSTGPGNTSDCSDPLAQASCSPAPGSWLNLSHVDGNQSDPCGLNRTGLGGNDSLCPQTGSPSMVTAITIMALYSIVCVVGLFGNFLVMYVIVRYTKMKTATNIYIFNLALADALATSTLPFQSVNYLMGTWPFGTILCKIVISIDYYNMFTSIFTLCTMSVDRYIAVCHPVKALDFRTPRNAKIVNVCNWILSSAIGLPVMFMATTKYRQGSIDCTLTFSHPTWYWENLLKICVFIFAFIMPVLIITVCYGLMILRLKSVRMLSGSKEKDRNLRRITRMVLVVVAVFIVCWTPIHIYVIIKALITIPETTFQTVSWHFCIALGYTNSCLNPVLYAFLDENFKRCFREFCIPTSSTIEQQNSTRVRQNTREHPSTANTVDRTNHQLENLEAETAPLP


Legend:
[1] = molecular target: T1, mouse kappa opioid receptor (mORK1, …); experiment: competition
[2] = molecular target: T2, mouse delta opioid receptor (mORD1, …); experiment: competition
[3] = molecular target: T3, delta opioid receptor D128N mutant; experiment: other (direct radioligand binding)
MOP2 = molecular target: T4, MOP2; experiment: other (direct radioligand binding)
[4] = molecular target: T2, mouse delta opioid receptor (mORD1, …); experiment: competition
rat mu opioid receptor = molecular target: T5, rat mu opioid receptor; experiment: competition

Row | IC50 [1] [nM] | IC50 [2] [nM] | binding result [3] | binding result (MOP2) | Ki [4] [nM] | Ki (rat mu opioid receptor) [nM] | Binder
1 | > 1000 | > 1000 | – | – | – | – | SANSNPAMAPRERKAGCKNFFWKTFTSC (disulfide 17-28 (inferred)) [SRIF]
2 | – | – | no binding | no binding | 1 | 1 | beta-Endorphin (protein) WCLESSQCQDLTTESNLLECIRACKPDLSAETPMFPGNGDEQPLTENPRKYVMGHFRWDRFGRRNSSSSGSSGAGQKREDVSAGEDCGPLPEGGPEPRSDGAKPGPREGKRSYSMEHFRWGKPVGKKRRPVKVYPNGAEDESAEAFPLEFKRELTGQRLREGDGPDGPADDGAGAQADLEHSLLVAAEKKDEGPYRMEHFRWGSPPKDKRYGGFMTSEKSQTPLVTLFKNAIIKNAYKKGE

Reference: patent publication US7235366 (dated 2007)
